Measured values reported in a protein production outcome set (Wang et al. 2014).

Assay: label from the status in PepcDB records

MKYLLLPVVVLLAGCQSLSQSDGNAITDNSDSQVETAHPVEINQALLADESIDVIHPVADVDFSLNNTLKDQKAIDENNIWPRIRSQLTFDIPNQKRLVSQRNWYVKHPSYLKRVAKRAEPFLYYIVQELEKNDMPIELAFLPIVESAFDPFAYSHGRASGMWQFVPGTGERFGMKQNWWYDGRRDVVASTEGAIKYLKYLHKFFDGDWMLALAAYNSGEGRVRNAVRKNKRLGKPTDFWSLDLPKETRAYVPKLLALADIVKRPEDFNLSLYSIDNKSVLSQVDIKSQLDLAKAATLAGLSLAELQRLNPGFNRWATDPDGPHRLLLPSHTVEKFELGLSKLSKKDRLAWQRYKIKSGDNLGLIANKFNTRVDLIQQVNNIKGNQIRAGKHLLIPVAAKSLDSYVFSQEQRIAKKQNRPQKGRKLVHTVKSGDNLWDIGRKYKVNSKSIAKWNGFAPRDTLKLGQKLVIWQKSDTKSNKSNFANSKTGNNVENAIMRNITYKVRRGDSFARIADKFNVRISDIERWNNLDRKKYLQPGQRLKLSVDVTNNI
protein production: failed

MLKKLAGALRTLMSVPADNPRLLEAQYVALSRQLPLMYFVLLVNTWALAFTHRETAPVWLTLLVPVLLTVICGIRARKWLLTVNRPPPAAATILATLRGTNSLAGVIAAGFAAWSLSLYPYGGPYAQAHVAFFMGITVIVCIFCMMHLRPAALTTAVVVNTAFVIFFASTHNLIFIATAVNIVLVSIGMLIILHHQYRDFTSLVDVQVRTEQLSNENLLLANKDSLTGLPNRRQFFQTLDAAMSEALALRSKLAVGVLDLDGFKPVNDLYGHRTGDRLLMLVAERLNSVASNTVHVSRLGGDEFALVIKGDISNEALLALGKHLCDLMHESFELSDMPIQIGATLGMATFPASADNATQLFEFADYALYQGKNHNPGTTCLFSASHREQLHTDGVTEQALRRANLETEFHVMFQPIIESCTCETVAFEALARWNSPELGAVSPAHFIPIAERIGMINKLTAPLLTHALQMALSWPAPIRLSFNLSAHDCATWESVSTIVEIIENSGFDASRLDLEITETAVMQDIAQVQQAIAQFRQLGCGISLDDFGTGFSSLSQLHALALTKLKIDRSFVTGVHDNPASYKIVKSLVALSLDMSLGCVIEGVETQDELNALTSLGCTMVQGYFYSPPISFAETLAWLETPDHERAFGYAAACRI
protein production: failed

AEMKTYSHRTMPSACTLVMCSSVESGLPGRDGRDGREGPRGEKGDPGLPGAAGQAGMPGQAGPVGPKGDNGSVGEPGPKGDTGPSGPPGPPGVPGPAGREGPLGKQGNIGPQGKPGPKGEAGPKGEVGAPGMQGSAGARGLAGPKGERGVPGERGVPGNTGAAGSAGAMGPQGSPGARGPPGLKGDKGIPGDKGAKGESGLPDVASLRQQVEALQGQVQHLQAAFSQYKKVELFPNGQSVGEKIFKTAGFVKPFTEAQLLCTQAGGQLASPRSAAENAALQQLVVAKNEAAFLSMTDSKTEGKFTYPTGESLVYSNWAPGEPNDDGGSEDCVEIFTNGKWNDRACGEKRLVVCEF
protein production: failed

MDISVIDATKVNTETGLHIGESNAPVKMIEFINVRCPYCRKWFEESEELLAQSVKSGKVERIIKLFDKEKESLQRGNVMHHYIDYSAPEQALSALHKMFATQDEWGNLTLEEVATYAEKNLGLKEQKDATLVSAVIAEANAAHIQFVPTIIIGEYIFDESVTEEELRGYIEK
protein production: not failed

MYLKHFGLGQAPFSLTPNTGFFFGLSPHVEALQVLQTALQTGEGFIKVTGEVGTGKTLICRKLINELPQGFHCAYLPNPYLTPAELRWAVANELGLKYTSEIDQQQLTGLIQQQLLALSTHGHAIVLVLDEAQALPDESLEALRLFTNLETESRKLLQVVLFGQPELDERLKRQAFRQLRQRITFSYNLRPLTWDETDAYIRYRLAVAGHAGQALFSPKITRKIAQASRGIPRLINILAHKALMLSFGEGATQVRMSHLKGAICDTEDASPTRVQKWSTYFAIAFMVFAVAMLALLLSGTNFLQWWGDGA
protein production: failed

MHGIDLHTHSNISDGTLSPSCLVDAAIACGIHTLALTDHDTMDGLETAIQQAQGHDIQIISGAEISSQWSRPNTKKAYGVHIVALNMQNPEPLLDALVIQKNIRAERAQQICQILQQCTGQDIYTDVLLKVEGEPDRITRTHIAKALVEKEIVARPQQAFDRFLKEGKRAYVKFDGLNLADTIRIIHESEGFAILAHPTRYDLSSTNVRYLIELFAKMGGDAVELPPSVDPVSTRQMIDRIIQQFDLKVSIGSDFHG
protein production: failed

SSLLDGLASSPRAPLQSSKARMKKLPKKSQNEKYRLKYLRLRKAAKATVFENAAICDEIARLEEKFLKAKEERRYLLKKLLQLQALTEGEVQAAAPSHSSSLPLTYGVASSVGTIQGAGPISGPSTGAEEPFGKKTKKEKKEKGKENNKLEVLKKTCKKKKMAGGARKLVQPIALDPSGRPVFPIGLGGLTVYSLGEIITDRPGFHDESAIYPVGYCSTRIYASMKCPDQKCLYTCQIKDGGVQPQFEIVPEDDPQNAIVSSSADACHAELLRTISTTMGKLMPNLLPAGADFFGFSHPAIHNLIQSCPGARKCINYQWVKFDVCKPGDGQLPEGLPENDAAMSFEAFQRQIFDEDQNDPLLPGSLDLPELQPAAFVSSYQPMYLTHEPLVDTHLQHLKSPSQGSPIQSSD
protein production: not failed

MNRARIIVAGIGPGGASDITPAVLSAIGRSDVVVGYKYYFRFIEPYLRPDTHCVDTGMKKERQRAEEAFGYALSGKTVCVISSGDAGIYGMAPLIYEMKRAKGVEMDIEVLPGISAFQKAASLLGAPIGHDLCLISLSDLMTPWPIIEKRIVAAASADFVTAIYNPKSEGRYWQLYRFVEIFMQYRSADTPVGLVRQAGREEEQVTVTTLGEFDPEVVDMFTVVLVGNSQSYCYEGHFITPRGYYPEEEIEAKGIGQEIMIKSFRTIEKELHRQDWPLDHKWALLHAIHTTADFDMENILYTDAGAVASLYEMIEAGRLRTIVTDVTMVTSGIRKGALERLGVEAKCYLHDPRVAELAARHGITRTQAGIRLAVEEHPDALFAFGNAPTALQELADLIRRGKASPAGIIAAPVGFVHVQESKHAVKPFRSIPKIIVEGRKGGSNLAATLVNAILCYNDAEQLRPGRDV
protein production: failed

MLIKLTGGTVYDPANGIDGQVRNLFIRDGRIVHSLNGATPDQEYDLRGKVVMAGAIDMHTHIGGGKVTIARNLLPELEHHHHHH
protein production: not failed

MAVKIQTPAGTIEITNDVIATVVGGAATDIYGIVGMASKNQIKDNLNDILRRENYSRGVVVRQEDNGIAVDVYTIVSYGTKISEVSRNVQEKVKYNLETLLGVTANSVNVFVQGVRVLPDLEHHHHHH
protein production: not failed

MRLDHLRLQNFRCYEDAHFDFQPGFNLVVGVNGSGKTSLLLGVAECLIPYGNAMGQGQEILSKEDVRFVIDRHEGRSRFERKFPVFIRADGDIFDLPNWRAVRLLEPWEGGVDPSSLSHLSAVLARNNAGEQIDFPVLAFYRANRRWSSARISAEFAAQQRTSRFDGYANWFDAVADLRDFESWLIARTLERLQDRLDSTPTVEREDELEWVNRAIRLAIPDAHDLRYDLRLQSLLVDMGEGNAVPFHELSDGQRSLIALIADIARRMCVLNPHIGKDVLANTGGIVIIDELDIHLHPAWQRNIAPTLKKAFPKVQFIATSHSPQVIGSLQPGEVILLKNGDSSHPRATYGLDSSTILEEVMGVPQREPEIEVLLDELFSTLENNELEKARLQLDALKKKAPDLPEFAGAEALLKRKELIGRLEHHHHHH
protein production: not failed

MRSYRAQGPLPGFYHYYPGVPAVVGVRVEERVNFCPAVWNTGLSADPPLFGVSISPKRFTHGLLLKARRFSASFHPFGQKDLVHWLGSHSGREVDKGQAPHFLGHTGVPILEGAYAAYELELLEVHTFGDHDLFVGRVVAVWEEEGLLDEKGRPKPGLALLYYGKGLYGRPAEETFAP
protein production: not failed

MVSAFNTGRTDDVDEYIHPDYLNPATLEHGIHTGPKAFAQLVGWVRATFSEEARLEEVRIEERGPWVKAYLVLYGRHVGRLVGMPPTDRRFSGEQVHLMRIVDGKIRDHRDWPDFQGTLRQLGDPWPDDEGWRP
protein production: not failed

MKITDISGKIETLVDSLRDMSPTRVRSSFSDEHVSENDDERSSWIALHPSALDMFEQIMRDAEGKQIIMFLDYDGTLSLITEDHDRAYITDEMREVVKEVATYFKTAIISGRSTDKVQSFVKLTGIHYAGSHGMDIKGPTNTDQSNQEEVMFQPASDYLPMIDEVVNVLKEKTKSIPGATVEHNKFCLTVHFRRVDETGWAALAEQVRLVLIDYPKLRLTQGRKVLELRPSIKWDKGKALEFLLNSLGIAESKDVLPVYIGDDRTDEDAFKVLCERGQGFGIIVSKTIKETYASYSLQDPSQVKEFLERLVKWKKQTLGE
protein production: failed

MGKTMITRALWSYAHRYRPQERWGILKPMQSGTAVEIGDGDYYCQTLPLEQTPREVCPLSFAAPLAPPIAAQLENRRIDLAPLWQTYQQLQERFDYLLVEGIGGLGSPITWEWTVADLAAAWKLPIVLVATVRLGAIAQIVANIALARQYQLVIRGLILNCVSPCSDAEIEQWTPPVFLSRFTQVPVLGVLPYGQHSNEQLAAMVAEWPLDLLWR
protein production: failed

MKPKVFITREIPEVGIKMLEDEFEVEVWGDEKEIPREILLKKVKEVDALVTMLSERIDKEVFENAPKLRIVANYAVGYDNIDIEEATKRGIYVTNTPDVLTDATADLAFALLLATARHVVKGDRFVRSGEWKKRGVAWHPKWFLGYDVYGKTIGIIGLGRIGQAIAKRAKGFNMRILYYSRTRKEEVERELNAEFKPLEDLLRESDFVVLAVPLTRETYHLINEERLKLMKKTAILINIARGKVVDTNALVKALKEGWIAGAGLDVFEEEPYYNEELFKLDNVVLTPHIGSASFGAREGMAELVAKNLIAFKRGEIPPTLVNREVIKIRKPGFE
protein production: not failed

MSSTASSVFADETLLFEPATPIANAVPLIFAFPNEYSVGITSLGFQIVWATLAARSDLQVSRLFTDIAEPLPRQPELLGFSLSWELDYVNILAMLEQLGIPLRSRDRGDEHPLVFGGGPTLTANPEPFADFFDVILVGDGEVLLDAFIDAYQPLRDRPRAEKLRQLAQVPGLYIPALYEPIYEAADGAIATIQPIDNDIPVQIEKQTYRGNVLSASTVVTPRAAWESIYMVEVVRSCPEMCRFCLASYLTLPFRTASLEESLQPAIARGLTATQRIGLLGASVTQHPEFPALLDRLGQPEFTDVRLSVASVRTNTVTEKFASILAQRGTKSLTIAVESGSERLRQVINKKLAQAEITEAAVNAKAGGLQGLKLYGMAGVPTETEDDLLATAEMLKGLKKAAPGLRLSYGCSTFVPKAQTPFQWQGVSPKAEKRLQFLQKQLRPQGIEFRPESYSWSVIQALISRGDRRLSSLLERVRHYGESLGSYRRAFKELKGTLPPLDFYVFQDWEPEAPLPWQHLRGPLPVETLRKHRQQAFAIAAAGVGSK
protein production: failed

MSVQTPDFSQQQQFLELTQQTIQNQQFDRLVLSQYKGTEPELEKVTFRMVELQQQFKLSALYHYTTKDVTKNYDLNDAIGVIETLIANCKQANLFGSVIEAQLKKNKKKAMLNVQQLSAEKYNNNVGQQHNREKQRYIDTMAPFLQYLGITEPNGNIIPAMARKWKQINKFIEIFSHAYEQIELKDDSIKIVDFGSGKGYLTFALYDYLQQQTRTAPQMTGVELRSNLVEFCEDVAKKAGFDHLDFFEGDVRTYAPEHLDVMIALHACDVATDFAIHTGIRLNASMIMCAPCCHKELRPQLQSPKVLKPMLQFGIHAGQQAEMLTDTLRALLLKAYGYDVKVFEFVSLEHTSKNKMILATKRQTIQQPDPQILEQIQALKQMYGIQKQTLELLLQDQITIDNVGCKC
protein production: failed

MGHHKAMPYADVAAFIIELRKREAVAATALEFTILTAARSGETLGAKWHEIDWKDKIWTVPAERMKAAREHRVPLSSRTITILKKLAEFGSDENSFVFPGQKPGKPLSVMAMDMVLRRMEVDVTVHGFRSSFRDWCGEVSNFPRDVAEAALAHLEHHHHHH
protein production: not failed

VDAGRGAEHDEAVTSDDSASVEVPRRATPADAATVAQMLHDFNTEFGAPTPGTDELASRLSHLLAGEDVVVLLAGEPPTGLAVLSFRPNVWYPGPVAILDELYVRPGRRGHRLGSALLAASCGLVRSRGGALLEINVDGEDTDARRFYEARGFTNTEPNGTEPMLYYYREL
protein production: not failed
